Laboratory results taken from patent US8008452B2, “Phosphorylated Ndr kinase” (Novartis Forschungesstiftung, Zweigniederlassung Friedrich …, priority 2002, dated 2011).

Legend:
[1] = test system: GST-NDR1; assay: GST-NDR1 in vitro autophosphorylation, incorporated 32P by Cerenkov counting; format: biochemical, human
Procedure: BL21-DE3-pRep4 E. coli strain was transformed with the pGEX-2T_NDR1 wild type or mutant plasmids. BL21-DE3 is a protease-deficient E. coli strain and pRep4 is a Laclq repressor-bearing plasmid both available commercially. Optionally, if desired, an E. coli strain comprising GroESL can be used, which expresses a chaperone protein that stabilizes the kinase. Mid-logarithmic phase cells were induced with 0.5 mM isopropyl beta-D-thiogalactopyranoside (IPTG) for 4 hours at 30° C. Bacteria were lysed using a French press in the presence of 1 mg/ml lysosyme, and the fusion proteins were purified on glutathione-agarose (Amersham Pharmacia Biotech) as described by the manufacturers. Recombinant proteins were assayed for kinase activity as described below and autophosphorylation was determined after SDS-PAGE separation either by Cerenkov counting or by exposure to a PhosphorImager screen followed by analysis with ImageQuant software (Molecular Dynamics).
In brief, 1 microgram of purified GST-NDR1 (in solution ˜0.5 microM) wild type, kinase dead (K118A), and alanine mutants of phosphorylation residues Thr74, Ser281, and Thr444 were autophosphorylated for 2 hours in vitro without further additions or in the presence of 1 mM CaCl2 and 10 microM bovine S100B. Proteins were visualized on SDS gels using Coomassie Blue R-350 stained SDS-PAGE gel, and [gamma-^32P]ATP-labelled proteins were visualized by autoradiography of the gels developed on a Phosphorimager screen. The amount of incorporated ^32P was quantified by Cerenkov counting.

[2] = test system: GST-NDR1; assay: GST-NDR1 kinase assay (peptide kinase assay); format: biochemical, human
Procedure: 1 microgram of purified recombinant GST-NDR1 wild type and mutants (without further treatment or autophosphorylated for 2 h in the presence or absence of 1 mM CaCl2 and […] (Sigma)) were assayed in 20 microliter of reaction mixture containing 20 mM Tris-HCl pH 7.5, 10 mM MgCl2, 1 mM DTT, 100 microM [gamma-^32P]ATP (˜0.5 microCi/microliter), and 1 mM NDR1 substrate peptide ([…]; SEQ ID NO:22). After 30 mins incubation at 30° C., reactions were stopped with 50 mM EDTA, and 10 microliters of reaction mixture were spotted onto 2 cm^2 squares of P81 phosphocellulose paper (Whatman). These were subsequently washed for 4×5 min and 3×20 min in 1% phosphoric acid and once in acetone before counting in a liquid scintillation counter. One unit of NDR1 activity was defined as the amount which catalyses the phosphorylation of 1 nmol peptide substrate in 1 min.
Specific activity of GST-NDR1 mutants was also measured by a peptide kinase assay as described above. For this purpose, 1 microgram of purified GST-NDR1 wild type and alanine mutants were left without further treatment or autophosphorylated for 2 h in the presence or absence of 1 mM CaCl2 and […].

[3] = test system: myc-hMOB1; assay: Co-immunoprecipitation of HA-NDR and myc-hMOB1 from COS-1 cells; format: binding, human; settings: COS-1 cells treated with OA prior to lysis
Procedure: HA-tagged hNDR and myc-tagged hMOB1 were cotransfected in COS1 cells, which were stimulated with okadaic acid or solvent alone. After cell lysis and extract preparation, HA-NDR was immunoprecipitated and co-immunoprecipitated myc-hMOB1 detected or Myc-hMOB1 was immunoprecipitated and co-immunoprecipitated HA-NDR detected.
HA-NDR, wt and mutants, and myc-hMOB1 were cotransfected into COS-1 cells and the cells were treated with OA prior to lysis. HA-NDR was immunoprecipitated and the coimmunoprecipitated myc-hMOB1 detected. […] Furthermore, the two important in vivo phosphorylation sites of NDR, serine-281 in the activation segment and the hydrophobic motif site threonine-444 in the C-terminal regulatory domain were tested, as well as the threonine 74 site in the N-terminal regulatory domain, for their role in NDR-MOB interaction.
HA-NDR N-terminal point mutants and myc-mob1 were co-transfected into COS1 cells which were treated with OA prior to lysis. HA-NDR mutants were immunoprecipitated and coimmunoprecipitated myc-hMOB1 detected.
In this Example, the effect of treatment of COS1 cells with BAPTA-AM on the NDR-MOB Interaction was determined. […] HA-NDR was immunoprecipitated and co-immunoprecipitated myc-MOB1 detected. The kinase activity of the HA-NDR immunoprecipitates was measured in a peptide kinase assay.

B1: S281A: NDR1 alanine mutant of phosphorylation residue Ser281; GST fusion or HA-tagged (protein)
chain: MAMTGSTPCSSMSNHTKERVTMTKVTLENFYSNLIAQHEEREMRQKKLEKVMEEEGLKDEEKRLRRSAHARKETEFLRLKRTRLGLEDFESLKVIGRGAFGEVRLVQKKDTGHVYAMKILRKADMLEKEQVGHIRAERDILVEADSLWVVKMFYSFQDKLNLYLIMEFLPGGDMMTLLMKKDTLTEEETQFYIAETVLAIDSIHQLGFIHRDIKPDNLLLDSKGHVKLSDFGLCTGLKKAHRTEFYRNLNHSLPSDFTFQNMNSKRKAETWKRNRRQLAFATVGTPDYIAPEVFMQTGYNKLCDWWSLGVIMYEMLIGYPPFCSETPQETYKKVMNWKETLTFPPEVPISEKAKDLILRFCCEWEHRIGAPGVEEIKSNSFFEGVDWEHIRERPAAISIEIKSIDDTSNFDEFPESDILKPTVATSNHPETDYKNKDWVFINYTYKRFEGLTARGAIPSYMKAAK
modifications: left off: small tags and cut ends
notes: NDR1 alanine mutant of phosphorylation residue Ser281; GST fusion or HA-tagged
[1]; GST-NDR1 variant, 1 microgram, autophosphorylated 2 hours without further additions, pmol ATP/pmol GST-NDR1
  amount of incorporated 32P (autophosphorylation), −S100B: 0.0192
[1]; GST-NDR1 variant, 2 hours in the presence of 1 mM CaCl2 and 10 microM bovine S100B, in pmol ATP/pmol GST-NDR1
  amount of incorporated 32P (autophosphorylation), +S100B: 0.028
[1]; compared with wild type
  autophosphorylation rate of GST-NDR1 mutant (in words): dramatically reduced autophosphorylation rate
[2]; autophosphorylated 2 h in the absence of CaCl2 and S100B
  Specific activity of GST-NDR1 variants, −S100B: 0.514
[2]; autophosphorylated 2 h in the presence of 1 mM CaCl2 and 10 mM bovine S100B
  Specific activity of GST-NDR1 variants, +S100B: 0.952
[2]; compared with wild type
  kinase activity of GST-NDR1 mutant (in words): almost undetectable
[2]; left without further treatment
  Specific activity of GST-NDR1 variants, CTRL: 0.16
[3]
  interaction of HA-NDR variant with myc-hMOB1: still interact with MOB1
